In IntAct's records for PubMed 20404169:

B1: Protein kinase C and casein kinase substrate in neurons protein 1 (Mus musculus), Q61644 (parent)
chain: MSGSYDEASEEITDSFWEVGNYKRTVKRIDDGHRLCNDLMSCVQERAKIEKAYAQQLTDWAKRWRQLIEKGPQYGSLERAWGAMMTEADKVSELHQEVKNSLLNEDLEKVKNWQKDAYHKQIMGGFKETKEAEDGFRKAQKPWAKKMKELEAAKKAYHLACKEERLAMTREMNSKTEQSVTPEQQKKLVDKVDKCRQDVQKTQEKYEKVLEDVGKTTPQYMEGMEQVFEQCQQFEEKRLVFLKEVLLDIKRHLNLAENSSYMHVYRELEQAIRGADAQEDLRWFRSTSGPGMPMNWPQFEEWNPDLPHTTAKKEKQPKKAEGATLSNATGAVESTSQAGDRGSVSSYDRGQTYATEWSDDESGNPFGGNEANGGANPFEDDAKGVRVRALYDYDGQEQDELSFKAGDELTKLGEEDEQGWCRGRLDSGQLGLYPANYVEAI
partner: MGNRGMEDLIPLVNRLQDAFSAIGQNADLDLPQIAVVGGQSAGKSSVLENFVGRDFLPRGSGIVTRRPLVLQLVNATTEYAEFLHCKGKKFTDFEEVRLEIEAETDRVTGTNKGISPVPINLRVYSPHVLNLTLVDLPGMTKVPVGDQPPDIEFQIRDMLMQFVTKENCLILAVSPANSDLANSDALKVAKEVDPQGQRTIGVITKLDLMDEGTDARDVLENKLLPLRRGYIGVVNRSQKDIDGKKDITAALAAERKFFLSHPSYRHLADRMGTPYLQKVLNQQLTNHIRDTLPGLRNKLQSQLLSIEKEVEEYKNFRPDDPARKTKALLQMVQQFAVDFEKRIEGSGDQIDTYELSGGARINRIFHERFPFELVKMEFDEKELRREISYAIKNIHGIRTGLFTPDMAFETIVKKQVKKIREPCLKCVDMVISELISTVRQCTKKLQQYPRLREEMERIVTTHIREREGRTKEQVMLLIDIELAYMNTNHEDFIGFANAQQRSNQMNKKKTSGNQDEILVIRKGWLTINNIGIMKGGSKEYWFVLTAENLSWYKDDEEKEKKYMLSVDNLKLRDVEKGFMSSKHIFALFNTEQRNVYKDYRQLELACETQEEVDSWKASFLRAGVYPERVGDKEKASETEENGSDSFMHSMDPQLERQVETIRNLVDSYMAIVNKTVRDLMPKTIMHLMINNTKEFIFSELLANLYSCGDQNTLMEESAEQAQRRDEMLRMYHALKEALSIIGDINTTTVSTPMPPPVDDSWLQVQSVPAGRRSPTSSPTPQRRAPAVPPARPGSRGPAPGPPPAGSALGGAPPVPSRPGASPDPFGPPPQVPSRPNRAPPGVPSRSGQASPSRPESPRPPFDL

Variants of: B1
Conditions: with dyn1_human DNM1, Q05193

Row | Variant | effect of a mutation on the interaction
1 | D394R;E400R | decreasing interaction strength
2 | E400R | decreasing interaction
3 | P434L | decreasing interaction
